Reference: the supplement of paper PMC10567573

B1: TSN (parent)
chain: AFVVYLETETLVTREAVTEILGIE

Variants of: B1
Experiment: protein stability index of a GFP-peptide fusion (GPS, HEK-293T) (PSI 1-6); higher = more stable
Conditions: c terminus: a fixed tail appended
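Further: lentivirally expressed fusions sorted by FACS into six bins by GFP to DsRed ratio, PSI derived from sequencing read proportions per bin multiplied by bin number.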

Protein stability index: each site, then its substitutions
E9: L 1.46 | W 3.68 | S 2.9 | R 1.65 | I 2.44 | G 3.65 | D 3.4 | A 2.65 | C 2.38 | M 2.42 | N 3.46
V12: G 2.73 | L 2.56 | E 2.35 | H 2.21 | A 3.16 | D 4.41 | I 3.19 | M 3.5
E7: W 3.69 | A 3.23 | G 2.77 | N 3.66 | C 1.79 | P 2.19 | Q 3.51 | L 2.42 | T 2.4 | H 3.41 | Y 2.77 | S 1.76 | I 3.57 | D 3.68 | K 2.63
V4: G 2.53 | P 2.66 | E 2.07 | R 1.45 | C 2.2 | W 2.92 | T 1.13 | Q 1.36 | D 2.41 | K 1.56 | N 2.09 | A 2.54 | H 2.19 | L 2.21 | S 1.57 | Y 2.61
T10: Q 1.68 | H 2.83 | D 2.79 | P 2.45 | A 1.65 | R 2.22 | V 2.5 | L 2.29 | S 2.76 | E 1.39 | K 3.37 | Y 2.36 | M 1.36 | C 2.82 | F 3.32
L11: E 1.73 | R 2.65 | H 3.08 | W 2.15 | P 1.97 | M 3.03 | G 2.58 | S 2.48 | D 2.34 | N 2.14 | Q 3.4 | T 1.64 | V 2.74 | A 2.69
F2: K 1.78 | S 2.36 | T 2.74 | L 2.25 | H 1.48 | A 1.97 | R 1.72 | Q 1.86 | D 3.68 | E 2.49 | Y 2.83 | G 1.88 | V 1 | P 3.41 | I 2.72 | W 1.84 | N 2.45 | M 2.88
V3: F 1.99 | H 2.3 | S 1.15 | P 2.89 | M 1.97 | R 1.34 | N 2.37 | D 2.37 | Y 2.86 | Q 2.75 | G 1.67 | L 2.35 | T 3.95 | A 2.32 | E 1.9 | K 1.81
A1: W 2.42 | T 2.55 | Q 2.11 | P 2.44 | S 2.71 | R 4.12
T8: V 2.41 | N 3.62 | K 2.53 | Q 2.06 | H 3.17 | G 2.1 | I 2.34 | R 4.36 | S 2.93 | E 1.4 | Y 1.7 | A 2.27 | D 1.94 | C 2.57
L6: F 3.12 | E 2.25 | R 1.24 | N 2.69 | A 1.34 | I 3.08 | H 1.37 | V 4.67 | G 1.77 | Y 2.2 | T 2.05 | Q 1.84 | S 1.83 | C 2.38 | K 2.03 | P 1.85 | D 2
Y5: V 3.44 | S 1.77 | C 2.94 | E 2.73 | G 2.5 | N 2.13 | K 1.14 | D 2.68 | T 3.32 | F 1.99 | A 2 | P 2.87 | H 1.59 | L 2.45 | Q 1.91 | R 2.97 | I 4.04
